Data on eleven molecules can be found in patent publication US20190064177A1, “INCORPORATING COMPETITIVE BINDING INFORMATION INTO MOLECULAR ARRAY ANALYSIS TO GENERATE FUNCTION NETWORKS OF INTERACTIONS” (ARIZONA BOARD OF REGENTS ON BEHALF OF ARIZONA STATE …, priority 2017, published 2019).

Assay [1] deals with Diaphorase. As to the kind of experiment: peptide array, 10 uM labeled diaphorase, no FAD.
Assay [2] deals with Diaphorase. As to the kind of experiment: peptide array, 10 uM labeled diaphorase, with FAD.
Assay [3] concerns the target Diaphorase. Nature of the assay: peptide array, 1 uM diaphorase, binding without FAD / with FAD.
The target in assay [4] is Diaphorase. As to the kind of experiment: peptide array, 10 uM diaphorase, binding without FAD / with FAD.
The target of assay [5] is Diaphorase. As to the kind of experiment: peptide array, 1 uM labeled diaphorase, no FAD.
In assay [6] the target is Diaphorase. Nature of the assay: peptide array, 1 uM labeled diaphorase, with FAD.

Take VLSLNQVYSEGSG: the fluorescence was determined as 9850 in assay [1], 21800 in assay [2], 1670 in assay [5] and 2710 in assay [6]. For the same molecule, the noFAD/FAD amounted to 0.619 in assay [3] and 0.452 in assay [4].

Consider YSALFGLQEDGSG, for which the fluorescence amounted to 8530 in assay [1], 16900 in assay [2], 1230 in assay [5] and 2100 in assay [6]. Further, the noFAD/FAD in assay [3] is 0.583; in assay [4], 0.506.

LDRLGEYQFSGSG: the fluorescence in assay [1] came to 3000; in assay [2], 7140; in assay [5], 709; in assay [6] it was 1160. Besides, the noFAD/FAD in assay [3] is 0.609; in assay [4], 0.419.

Consider YVWGLELSGGSG, for which the fluorescence worked out at 17300 in assay [1], 36300 in assay [2], 2610 in assay [5] and 4690 in assay [6]. Moreover, the noFAD/FAD in assay [3] was found to be 0.556; in assay [4], 0.476.

Turning to EGYANKLLALFSGSG, the fluorescence in assay [1] stood at 6650; in assay [2] it was 10400; in assay [5], 1030; in assay [6], 1730. The noFAD/FAD turned out to be 0.599 in assay [3] and 0.639 in assay [4].

Take LLGFLGGSG: the fluorescence in assay [1] came out at 26300; in assay [2], 40300; in assay [5], 2320; in assay [6], 4140. In addition, the noFAD/FAD in assay [3] is 0.559; in assay [4], 0.652.

As to EAVQKLLFSGSG, the fluorescence in assay [1] is 5390; in assay [2] it was 17700; in assay [5] it was 1460; in assay [6], 2420. Further, the noFAD/FAD is 0.602 in assay [3] and 0.304 in assay [4].

For AFYGLELGGSG, the fluorescence is 16500 in assay [1], 36700 in assay [2], 2260 in assay [5] and 4180 in assay [6]. For the same molecule, the noFAD/FAD in assay [3] amounted to 0.541; in assay [4], 0.45.

As for FGKLYQLYNDGSG, the fluorescence is 15700 in assay [1], 34200 in assay [2], 1910 in assay [5] and 3050 in assay [6]. Besides, the results for the noFAD/FAD in assay [3] and in assay [4] were 0.627 and 0.46, respectively.

For the molecule NVSDLSQFYLSGSG, the fluorescence in assay [1] was determined as 6740; in assay [2], 27800; in assay [5] it was 2140; in assay [6] it was 3440. Moreover, the noFAD/FAD in assay [3] amounted to 0.624; in assay [4] it was 0.242.

With ELFGALFKGGSG, the fluorescence in assay [1] is 12900; in assay [2], 25300; in assay [5], 2080; in assay [6], 3400. Also, the noFAD/FAD is 0.612 in assay [3] and 0.511 in assay [4].
